This note sets out measurements from PMC6300356, “DNA translocation mechanism of an XPD family helicase”.

This series has as its target T1, DinG (Escherichia coli, UniProt P27296 1-716).
T1 sequence: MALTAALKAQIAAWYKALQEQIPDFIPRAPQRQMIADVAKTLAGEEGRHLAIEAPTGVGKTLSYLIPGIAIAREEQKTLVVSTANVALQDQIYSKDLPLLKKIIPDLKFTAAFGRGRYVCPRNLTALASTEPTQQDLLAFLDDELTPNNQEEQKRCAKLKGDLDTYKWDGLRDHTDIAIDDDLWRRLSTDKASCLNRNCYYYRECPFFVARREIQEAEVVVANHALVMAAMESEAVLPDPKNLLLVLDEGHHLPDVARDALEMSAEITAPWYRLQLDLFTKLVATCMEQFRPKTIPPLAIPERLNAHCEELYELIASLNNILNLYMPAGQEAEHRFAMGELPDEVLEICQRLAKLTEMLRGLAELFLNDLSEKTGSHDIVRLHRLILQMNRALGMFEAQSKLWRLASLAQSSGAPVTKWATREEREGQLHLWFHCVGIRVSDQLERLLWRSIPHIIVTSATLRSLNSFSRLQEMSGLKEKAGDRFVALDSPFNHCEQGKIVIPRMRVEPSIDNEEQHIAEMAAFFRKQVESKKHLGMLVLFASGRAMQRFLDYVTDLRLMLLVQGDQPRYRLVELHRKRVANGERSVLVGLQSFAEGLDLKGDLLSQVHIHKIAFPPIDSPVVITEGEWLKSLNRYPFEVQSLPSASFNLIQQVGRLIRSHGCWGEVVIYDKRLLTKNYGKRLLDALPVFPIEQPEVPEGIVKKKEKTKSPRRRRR
Nature of the series: X-ray crystallography (2.5 A); binary complex, no nucleotide; MST: 25 mM Tris pH 8.0, 200 mM NaCl, 1 mM DTT, 5% glycerol, 25 C, 10 nM ssDNA. Conditions: protein: recombinant; tags: His6-MBP-TEV N-terminal, removed by TEV.

B1: dT12 (12 base oligo-dT) (ssDNA)
DNA: TTTTTTTTTTTT
On to B1, for which the binding result is recorded as “binds”.
